The results in this text go back to patent EP1852441B1, “Agents that modulate EPH receptor activity” (The Burnham Institute, priority 2002, dated 2004).

The target of this assay is EphA4 Fc (EphA4 receptor extracellular domain fused to a human Fc region). As to the kind of experiment: inhibition of ephrin-A5 AP binding to EphA4.
EphA4 Fc (EphA4 receptor extracellular domain fused to a human Fc region), sequence (Q03137 20-547): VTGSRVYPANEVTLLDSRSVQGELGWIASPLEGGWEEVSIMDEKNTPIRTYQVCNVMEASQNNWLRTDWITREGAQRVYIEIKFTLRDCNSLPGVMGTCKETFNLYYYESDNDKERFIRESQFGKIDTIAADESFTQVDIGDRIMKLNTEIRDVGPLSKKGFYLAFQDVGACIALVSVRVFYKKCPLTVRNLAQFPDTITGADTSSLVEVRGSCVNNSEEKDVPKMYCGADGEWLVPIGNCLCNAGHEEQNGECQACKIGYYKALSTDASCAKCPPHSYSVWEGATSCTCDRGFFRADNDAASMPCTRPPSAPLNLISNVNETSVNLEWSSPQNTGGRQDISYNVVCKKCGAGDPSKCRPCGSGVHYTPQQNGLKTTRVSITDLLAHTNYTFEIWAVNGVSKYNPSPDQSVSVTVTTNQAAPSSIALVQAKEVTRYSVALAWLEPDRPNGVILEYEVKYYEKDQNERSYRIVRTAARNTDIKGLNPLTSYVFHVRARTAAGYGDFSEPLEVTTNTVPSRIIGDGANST
synthetic APY peptide (…): the concentration that almost completely inhibits ephrin-A5 AP binding came to 10 µM.
Consider synthetic KYL peptide (…), for which the concentration that almost completely inhibits ephrin-A5 AP binding turned out to be 1 µM.
With synthetic VTM peptide (…) the figure was 100 µM.
